{"source": "paper PMC6544042", "about": "“Switching the Post-translational Modification of Translation Elongation Factor EF-P” (Frontiers in Microbiology, 2019)", "substrate": "Cc1cn([C@H]2C[C@H](O)[C@@H](COP(=O)(O)OP(=O)(O)O[C@H]3O[C@@H](C)[C@H](O)[C@@H](O)[C@H]3O)O2)c(=O)[nH]c1=O", "assay": "anti-rhamnosylarginine Western blot, band intensity, Michaelis-Menten fit", "type": "biochemical, Pseudomonas putida", "details": "2.5 μM unmodified EF-P of P. putida as acceptor, 0.1 μM EarP, 100 mM sodium phosphate pH 7.6, 30 °C, 20 s, commercial TDP-Rha"}
{"protein": "EarPPpu (Pseudomonas putida KT2440) (protein, C-terminal His6 tag kept; pBAD33-earPPpu, E. coli LMG194 host, Ni-NTA purified; GT-B fold, GT104 family) MKATWDIFCSVVDNYGDIGVTWRLARQLVAEHGLAVRLWVDDLNAFTPMCPGADATAAQQWQHGVDVRHWPAAWLPVAPADVVIGAFACQLPAAYVEAMRARPQPPLWLNLEYLSAEDWVEGCHGLPSPQPNGLRKVFFFPGFTDKTGGLLREGSLLARRDGFQQSAEARRAFLQGLGVDLVPGALLISLFAYENPQLGNWLDALATADQPCHLLVPQGRVVAGLSQWLGEGPLHVGDVRTRGALTVQVLPFVSQDDFDRLLWSCDFNAVRGEDSFVRAQWAGQPMLWHIYVQDENAHWEKLEAFLAHYRCGLSDDADAALLGLWRAWNMDFDMGQAWRAARQHWPELQQHARLWGARQAAQPDLATALVHFYRNSL", "values": [{"measurement": "Km", "result": 5, "unit": "µM"}]}
